Reference: patent US10800847
One block for each substance: values may come before it.

Experiments:
[1] = target: HLA-B*4403 (B44) single antigen on Luminex beads (human); assay: Luminex single antigen, regular beads (#7), IVIg 1:8
[2] = target: HLA-B*3901 (B39) single antigen on Luminex beads (human); assay: as above
[3] = target: HLA-B*4006 (B61) single antigen on Luminex beads (human); assay: as above
[4] = target: HLA-B*3801 (B38) single antigen on Luminex beads (human); assay: as above
[5] = target: HLA-B*4501 (B45) single antigen on Luminex beads (human); assay: as above
[6] = target: HLA-B*4001 (B60) single antigen on Luminex beads (human); assay: as above
[7] = target: HLA-B*3701 (B37) single antigen on Luminex beads (human); assay: as above
[8] = target: HLA-B*4701 (B47) single antigen on Luminex beads (human); assay: as above
[9] = target: HLA-B*2705 (B27) single antigen on Luminex beads (human); assay: as above
[10] = target: HLA-B*4201 (B42) single antigen on Luminex beads (human); assay: as above
[11] = target: HLA-B*3501 (B35) single antigen on Luminex beads (human); assay: as above
[12] = target: HLA-B*4601 (B46) single antigen on Luminex beads (human); assay: as above
[13] = target: Albumin on negative control beads (serum albumin, HSA/BSA) (human or bovine); assay: Luminex single antigen beads, iBeads (#6), 1:8
[14] = target: HLA-A*0301 (A3) on single antigen beads (human) (UniProt P04439); assay: Luminex single antigen beads, iBeads (#6), 1:8
[15] = target: HLA-B*4402 (B44) single antigen on Luminex beads (human); assay: Luminex single antigen, iBead vs regular bead, IVIg 1:8
[16] = target: HLA-B*4006 (B61) single antigen on Luminex beads (human); assay: as above
[17] = target: HLA-B*4501 (B45) single antigen on Luminex beads (human); assay: as above
[18] = target: HLA-B*3701 (B37) single antigen on Luminex beads (human); assay: as above
[19] = target: HLA-B*4701 (B47) single antigen on Luminex beads (human); assay: as above
[20] = target: HLA-B*2705 (B27) single antigen on Luminex beads (human); assay: as above
[21] = target: HLA-B*4201 (B42) single antigen on Luminex beads (human); assay: as above
[22] = target: HLA-B*3501 (B35) single antigen on Luminex beads (human); assay: as above
[23] = target: HLA-B*2708 (B27) single antigen on Luminex beads (human); assay: as above
[24] = target: HLA-B*4601 (B46) single antigen on Luminex beads (human); assay: as above
[25] = target: HLA-A*0301 (A3) on single antigen beads (human) (UniProt P04439); assay: Luminex, iBead MFI against regular bead MFI, 1:8
[26] = target: HLA-B*4403 (B44) single antigen on Luminex beads (human); assay: Luminex single antigen, iBeads (#6), IVIg 1:8
[27] = target: HLA-B*3901 (B39) single antigen on Luminex beads (human); assay: Luminex single antigen, iBeads (#6), IVIg 1:8
[28] = target: HLA-B*4402 (B44) single antigen on Luminex beads (human); assay: Luminex single antigen, iBeads (#6), IVIg 1:8
[29] = target: HLA-B*4006 (B61) single antigen on Luminex beads (human); assay: Luminex single antigen, iBeads (#6), IVIg 1:8
[30] = target: HLA-B*3801 (B38) single antigen on Luminex beads (human); assay: Luminex single antigen, iBeads (#6), IVIg 1:8
[31] = target: HLA-B*4501 (B45) single antigen on Luminex beads (human); assay: Luminex single antigen, iBeads (#6), IVIg 1:8
[32] = target: HLA-B*4001 (B60) single antigen on Luminex beads (human); assay: Luminex single antigen, iBeads (#6), IVIg 1:8
[33] = target: HLA-B*3701 (B37) single antigen on Luminex beads (human); assay: Luminex single antigen, iBeads (#6), IVIg 1:8
[34] = target: HLA-B*4701 (B47) single antigen on Luminex beads (human); assay: Luminex single antigen, iBeads (#6), IVIg 1:8
[35] = target: HLA-B*4101 (B41) single antigen on Luminex beads (human); assay: Luminex single antigen, iBeads (#6), IVIg 1:8
[36] = target: HLA-B*2705 (B27) single antigen on Luminex beads (human); assay: Luminex single antigen, iBeads (#6), IVIg 1:8
[37] = target: HLA-B*4201 (B42) single antigen on Luminex beads (human); assay: Luminex single antigen, iBeads (#6), IVIg 1:8
[38] = target: HLA-B*4002 (B61) single antigen on Luminex beads (human); assay: Luminex single antigen, iBeads (#6), IVIg 1:8
[39] = target: HLA-B*3501 (B35) single antigen on Luminex beads (human); assay: Luminex single antigen, iBeads (#6), IVIg 1:8
[40] = target: HLA-B*2708 (B27) single antigen on Luminex beads (human); assay: Luminex single antigen, iBeads (#6), IVIg 1:8
[41] = target: Albumin on negative control beads (serum albumin, HSA/BSA) (human or bovine); assay: Luminex single antigen beads, regular beads (#7), 1:8
[42] = target: HLA-B*4402 (B44) single antigen on Luminex beads (human); assay: Luminex single antigen, regular beads (#7), IVIg 1:8
[43] = target: HLA-B*4101 (B41) single antigen on Luminex beads (human); assay: as above
[44] = target: HLA-B*4002 (B61) single antigen on Luminex beads (human); assay: as above
[45] = target: HLA-B*2708 (B27) single antigen on Luminex beads (human); assay: as above
[46] = target: HLA-B*4403 (B44) single antigen on Luminex beads (human); assay: Luminex single antigen, iBead vs regular bead, IVIg 1:8
[47] = target: HLA-B*3801 (B38) single antigen on Luminex beads (human); assay: as above
[48] = target: HLA-B*4002 (B61) single antigen on Luminex beads (human); assay: as above
[49] = target: Albumin on negative control beads (serum albumin, HSA/BSA) (human or bovine); assay: Luminex, iBead MFI against regular bead MFI, 1:8
[50] = target: HLA-B*4601 (B46) single antigen on Luminex beads (human); assay: Luminex single antigen, iBeads (#6), IVIg 1:8
[51] = target: HLA-A*0301 (A3) on single antigen beads (human) (UniProt P04439); assay: Luminex single antigen beads, regular beads (#7), 1:8
[52] = target: HLA-A*8001 (A80) single antigen on Luminex beads (human); assay: Luminex single antigen bead assay, iBeads (#6), IVIg 1:8
[53] = target: HLA-A*7401 (A74) single antigen on Luminex beads (human); assay: as above
[54] = target: HLA-A*6901 (A69) single antigen on Luminex beads (human); assay: as above
[55] = target: HLA-A*6802 (A68) single antigen on Luminex beads (human); assay: as above
[56] = target: HLA-A*8001 (A80) single antigen on Luminex beads (human); assay: Luminex single antigen bead assay, regular beads (#7), IVIg 1:8
[57] = target: HLA-A*7401 (A74) single antigen on Luminex beads (human); assay: as above
[58] = target: HLA-A*6901 (A69) single antigen on Luminex beads (human); assay: as above
[59] = target: HLA-A*6802 (A68) single antigen on Luminex beads (human); assay: as above
[60] = target: HLA-A*8001 (A80) single antigen on Luminex beads (human); assay: Luminex single antigen bead assay, iBeads vs regular beads, IVIg 1:8
[61] = target: HLA-A*7401 (A74) single antigen on Luminex beads (human); assay: as above
[62] = target: HLA-A*6901 (A69) single antigen on Luminex beads (human); assay: as above
[63] = target: HLA-A*6802 (A68) single antigen on Luminex beads (human); assay: as above

MFI [1]: 3390 MFI
MFI [2]: 0 MFI
MFI [3]: 3470 MFI
MFI [4]: 619 MFI
MFI [5]: 3670 MFI
MFI [6]: 1720 MFI
MFI [7]: 3240 MFI
MFI [8]: 1770 MFI
MFI [9]: 1370 MFI
MFI [10]: 598 MFI
MFI [11]: 680 MFI
MFI [12]: 1830 MFI
MFI [13]: 5030 MFI
MFI [14]: 0 MFI
Difference % (iBead against regular bead MFI) [15]: -22%
Difference % (iBead against regular bead MFI) [16]: -32%
Difference % (iBead against regular bead MFI) [17]: 47%
Difference % (iBead against regular bead MFI) [18]: -88%
Difference % (iBead against regular bead MFI) [19]: 81%
Difference % (iBead against regular bead MFI) [20]: -21%
Difference % (iBead against regular bead MFI) [21]: -52%
Difference % (iBead against regular bead MFI) [22]: -4%
Difference % (iBead against regular bead MFI) [23]: 32%
Difference % (iBead against regular bead MFI) [24]: -20%
Difference % (iBead against regular bead) [25]: -100%
MFI [26]: 2900 MFI
MFI [27]: 0 MFI
MFI [28]: 3380 MFI
MFI [29]: 2370 MFI
MFI [30]: 0 MFI
MFI [31]: 5400 MFI
MFI [32]: 2290 MFI
MFI [33]: 392 MFI
MFI [34]: 3210 MFI
MFI [35]: 870 MFI
MFI [36]: 1080 MFI
MFI [37]: 286 MFI
MFI [38]: 1190 MFI
MFI [39]: 653 MFI
MFI [40]: 1410 MFI
MFI [41]: 3790 MFI
Substance: GamaSTAN S/D (IVIg, Talecris Biotherapeutics, Inc., USA) (antibody)

MFI [1]: 1110 MFI
MFI [2]: 0 MFI
MFI [42]: 6460 MFI
MFI [3]: 5390 MFI
MFI [4]: 1360 MFI
MFI [5]: 1110 MFI
MFI [6]: 1680 MFI
MFI [7]: 6130 MFI
MFI [8]: 2550 MFI
MFI [43]: 716 MFI
MFI [9]: 388 MFI
MFI [10]: 455 MFI
MFI [44]: 569 MFI
MFI [11]: 1670 MFI
MFI [45]: 0 MFI
MFI [12]: 3010 MFI
MFI [13]: 7150 MFI
Difference % (iBead against regular bead MFI) [46]: 116%
Difference % (iBead against regular bead MFI) [15]: -71%
Difference % (iBead against regular bead MFI) [16]: -60%
Difference % (iBead against regular bead MFI) [47]: 1%
Difference % (iBead against regular bead MFI) [17]: 91%
Difference % (iBead against regular bead MFI) [18]: -41%
Difference % (iBead against regular bead MFI) [19]: 10%
Difference % (iBead against regular bead MFI) [20]: 327%
Difference % (iBead against regular bead MFI) [21]: 139%
Difference % (iBead against regular bead MFI) [48]: 195%
Difference % (iBead against regular bead MFI) [22]: -3%
Difference % (iBead against regular bead MFI) [24]: 17%
Difference % (iBead against regular bead) [49]: -34%
MFI [26]: 2400 MFI
MFI [27]: 242 MFI
MFI [28]: 1870 MFI
MFI [29]: 2140 MFI
MFI [30]: 1380 MFI
MFI [31]: 2110 MFI
MFI [33]: 3640 MFI
MFI [34]: 2800 MFI
MFI [35]: 1490 MFI
MFI [36]: 1660 MFI
MFI [37]: 1090 MFI
MFI [38]: 1680 MFI
MFI [39]: 1610 MFI
MFI [40]: 1340 MFI
MFI [50]: 3540 MFI
MFI [41]: 10800 MFI
MFI [51]: 0 MFI
Substance: Gamunex-C Lot NKLG1 (IVIg) (antibody)

MFI [52]: 2850 MFI
MFI [53]: 431 MFI
MFI [54]: 2410 MFI
MFI [55]: 2080 MFI
MFI [56]: 2700 MFI
MFI [57]: 80 MFI
MFI [58]: 1880 MFI
MFI [59]: 2060 MFI
Difference % (iBead MFI against regular bead MFI) [60]: 5%
Difference % (iBead MFI against regular bead MFI) [61]: 437%
Difference % (iBead MFI against regular bead MFI) [62]: 28%
Difference % (iBead MFI against regular bead MFI) [63]: 1%
Substance: IVIg GamaSTAN S/D (Talecris Biotherapeutics, Inc., USA) (antibody)
